Experimental data published in US20240228645A1.

Experiments:
[1] = target: human BAFF-R expressed on cells (hBAFF-R-CHO isogenic CHO cells; BAFF-R+ cancer cells) (human) (UniProt Q96RJ3); assay: cell-based blocking assay; MFI of BAFF-biotin bound to CHO cells expressing human BAFF-R in the presence of the control antibody
PSR [2] = assay: PSR assay: antibody on Protein A coated beads, biotinylated PSR, SA-PE, flow cytometry; +PSR panel, other quadrants Q1 72.8, Q3 7.72E-3, Q4 0.29; without PSR Q2 0
PSR [3] = assay: PSR assay: antibody on Protein A coated beads, biotinylated PSR, SA-PE, flow cytometry; +PSR panel, other quadrants Q1 98.8, Q3 0, Q4 0.048
[4] = target: hBAFF-R-hFc-His fusion protein (human) (UniProt Q96RJ3); assay: yeast surface display flow cytometry; hBAFF-R-hFc-His (concentration not given)
[5] = target: hBAFF-R-hFc-His fusion protein (human) (UniProt Q96RJ3); assay: yeast surface display flow cytometry; hBAFF-R-hFc-His (concentration not given); other quadrants Q1 0.35, Q3 13.0, Q4 28.5
[6] = target: hBAFF-R-hFc-His fusion protein (human) (UniProt Q96RJ3); assay: yeast surface display flow cytometry; hBAFF-R-hFc-His (concentration not given); other quadrants Q1 0.17, Q3 10.5, Q4 22.3
[7] = target: hBAFF-R-hFc-His fusion protein (human) (UniProt Q96RJ3); assay: yeast surface display flow cytometry; hBAFF-R-hFc-His (concentration not given); other quadrants Q1 0.34, Q3 5.47, Q4 34.4
[8] = target: hBAFF-R-hFc-His fusion protein (human) (UniProt Q96RJ3); assay: yeast surface display flow cytometry, before challenge: 100 pM hBAFFR-Fc biotin for 1 hr at RT; other quadrants Q1 44.1, Q3 9.77E-3, Q4 14.6
[9] = target: hBAFF-R-hFc-His fusion protein (human) (UniProt Q96RJ3); assay: yeast surface display flow cytometry, after challenge: 100 pM hBAFFR-Fc biotin, then 1 mM (so in the source); paragraph 270 says 1 uM) nonbiotinylated hBAFFR-Fc, t = 120 min
[10] = target: hBAFF-R-hFc-His fusion protein (human) (UniProt Q96RJ3); assay: yeast surface display flow cytometry, after challenge: 100 pM hBAFFR-Fc biotin for 1 hr at RT, then 1 mM (so in the source); paragraph 270 says 1 uM) nonbiotinylated hBAFFR-Fc, t = 120 min; other quadrants Q1 64.5, Q3 0.050, Q4 21.0

In the case of Human IgG1k (antibody), the Minimum (MFI) [1] is reported as 68000 MFI.
For Ixekuzumab (antibody), the Q2, percent of beads positive for FITC and for PSR binding (PE), +PSR (PSR [2]) was 27.1.
Trastuzumab (antibody) gave a Q2, percent of beads positive for FITC and for PSR binding (PE), +PSR (PSR [3]) of 1.18.
Work on “ianalumab-based scFv benchmark control displayed on yeast” yielded a Gated lane, percent of events in the drawn gate [4] of 0.3, a Gated, percent of events in the drawn gate [4] of 0.72 and a Q2, percent of events positive for scFv expression and for antigen binding [5] of 58.2. The Q2, percent of events positive for scFv expression and for antigen binding [6] was 67, the Q2, percent of events positive for scFv expression and for antigen binding [7] was 59.5 and the Q2, percent of events positive for scFv expression and for antigen binding, before challenge [8] was 41.3. The Iana (drawn gate), percent of events, after challenge [9] was 0.13 and the Q2, percent of events positive for scFv expression and for antigen binding, after challenge [10] was 14.4.
